B1: 5504 IgG4_Pro (antibody, V domains shown)
VH: QVQLQQSGPGLVKPSQTLSLTCAISGDSVSSRSASWSWIRQSPGRGLEWLGRIYYRSKWYNDYAVSVKSRITINPDTSKNQFSLQLNSVTPEDTAVYYCARMDVPSFRYFDVWGQGTLVTVSS
VL: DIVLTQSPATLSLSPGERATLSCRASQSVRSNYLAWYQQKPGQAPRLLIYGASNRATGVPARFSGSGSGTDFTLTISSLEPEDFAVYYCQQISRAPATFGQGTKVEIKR
notes: Human IgG4_Pro
B2: 5504 Fab (Fab, V domains shown)
VH: QVQLQQSGPGLVKPSQTLSLTCAISGDSVSSRSASWSWIRQSPGRGLEWLGRIYYRSKWYNDYAVSVKSRITINPDTSKNQFSLQLNSVTPEDTAVYYCARMDVPSFRYFDVWGQGTLVTVSS
VL: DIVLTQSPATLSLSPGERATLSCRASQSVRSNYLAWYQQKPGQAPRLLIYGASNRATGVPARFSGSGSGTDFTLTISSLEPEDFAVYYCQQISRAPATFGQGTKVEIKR

Tests used:
[1] = molecular target: T1, human NPRB on HEK293 cells, without added ligand (human, UniProt P20594 23-1047); test: FACS, HEK NPRB cells without ligand
T1 construct: whole, on cells; also called HEK NPRB cells; natriuretic peptide receptor B
T1 sequence (looked up): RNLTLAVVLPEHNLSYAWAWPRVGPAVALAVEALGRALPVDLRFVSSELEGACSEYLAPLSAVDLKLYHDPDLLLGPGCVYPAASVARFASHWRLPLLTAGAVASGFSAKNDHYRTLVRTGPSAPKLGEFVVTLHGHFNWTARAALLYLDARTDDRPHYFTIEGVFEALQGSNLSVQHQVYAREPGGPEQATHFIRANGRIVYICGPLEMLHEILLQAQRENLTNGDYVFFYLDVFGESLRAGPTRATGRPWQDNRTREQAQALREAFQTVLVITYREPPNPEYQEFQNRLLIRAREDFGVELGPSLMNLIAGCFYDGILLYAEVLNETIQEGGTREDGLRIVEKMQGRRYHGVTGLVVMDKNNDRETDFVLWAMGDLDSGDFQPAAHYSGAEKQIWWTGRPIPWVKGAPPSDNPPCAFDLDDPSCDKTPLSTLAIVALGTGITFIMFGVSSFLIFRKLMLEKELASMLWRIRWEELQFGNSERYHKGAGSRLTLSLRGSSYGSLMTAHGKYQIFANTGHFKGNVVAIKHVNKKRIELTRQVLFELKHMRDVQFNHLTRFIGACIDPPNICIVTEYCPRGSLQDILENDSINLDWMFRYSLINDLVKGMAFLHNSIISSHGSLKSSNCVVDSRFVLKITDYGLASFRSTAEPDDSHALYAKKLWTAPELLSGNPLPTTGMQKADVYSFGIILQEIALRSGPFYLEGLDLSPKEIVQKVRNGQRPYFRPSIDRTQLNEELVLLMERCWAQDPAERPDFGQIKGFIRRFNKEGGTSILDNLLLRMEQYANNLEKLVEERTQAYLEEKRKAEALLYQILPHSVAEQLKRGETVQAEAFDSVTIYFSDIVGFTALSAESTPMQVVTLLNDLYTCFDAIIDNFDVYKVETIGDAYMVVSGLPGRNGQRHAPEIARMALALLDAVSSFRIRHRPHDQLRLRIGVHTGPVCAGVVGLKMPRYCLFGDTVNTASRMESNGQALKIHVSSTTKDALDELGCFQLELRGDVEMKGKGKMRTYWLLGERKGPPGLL
Method: (§1) HEK NPRA cells are detached with Accutase (PAA Laboratories GmbH, Cat. No. L11-007, Austria), harvested by centrifugation (900 rpm, 4 minutes) and resuspended in FACS buffer (PBS/3% FCS/0.02% NaN3) to a final concentration of 10⁶ cells/ml. 100 μl of the cell suspension is transferred to each well of a 96 round bottom plate (TC Microwell 96U, Nunc). […] Cells are washed in 150 μl of FACS buffer, pelleted and resuspended in 50 μl of the solution containing the primary antibody comprising a BEL extract of Fabs, a diluted BEL extract or purified antibody diluted in FACS buffer and incubated on ice for 30 min. Cells are washed again in FACS buffer and resuspended in 50 μl of FACS buffer containing the secondary antibody (R-Phycoerythrin-conjugated Affipure F(ab′)₂ Fragment Goat Anti-Human IgG, Dianova) and incubated on ice for 45 min. Cells are washed twice with FACS buffer and resuspended in 200 μl of FACS buffer for analysis in the FACS Array (BD Biosciences).

[2] = molecular target: T2, human NPRA on HEK293 cells bound to ANP (human, UniProt P01160 124-151); test: cell-based or functional assay
T2 sequence: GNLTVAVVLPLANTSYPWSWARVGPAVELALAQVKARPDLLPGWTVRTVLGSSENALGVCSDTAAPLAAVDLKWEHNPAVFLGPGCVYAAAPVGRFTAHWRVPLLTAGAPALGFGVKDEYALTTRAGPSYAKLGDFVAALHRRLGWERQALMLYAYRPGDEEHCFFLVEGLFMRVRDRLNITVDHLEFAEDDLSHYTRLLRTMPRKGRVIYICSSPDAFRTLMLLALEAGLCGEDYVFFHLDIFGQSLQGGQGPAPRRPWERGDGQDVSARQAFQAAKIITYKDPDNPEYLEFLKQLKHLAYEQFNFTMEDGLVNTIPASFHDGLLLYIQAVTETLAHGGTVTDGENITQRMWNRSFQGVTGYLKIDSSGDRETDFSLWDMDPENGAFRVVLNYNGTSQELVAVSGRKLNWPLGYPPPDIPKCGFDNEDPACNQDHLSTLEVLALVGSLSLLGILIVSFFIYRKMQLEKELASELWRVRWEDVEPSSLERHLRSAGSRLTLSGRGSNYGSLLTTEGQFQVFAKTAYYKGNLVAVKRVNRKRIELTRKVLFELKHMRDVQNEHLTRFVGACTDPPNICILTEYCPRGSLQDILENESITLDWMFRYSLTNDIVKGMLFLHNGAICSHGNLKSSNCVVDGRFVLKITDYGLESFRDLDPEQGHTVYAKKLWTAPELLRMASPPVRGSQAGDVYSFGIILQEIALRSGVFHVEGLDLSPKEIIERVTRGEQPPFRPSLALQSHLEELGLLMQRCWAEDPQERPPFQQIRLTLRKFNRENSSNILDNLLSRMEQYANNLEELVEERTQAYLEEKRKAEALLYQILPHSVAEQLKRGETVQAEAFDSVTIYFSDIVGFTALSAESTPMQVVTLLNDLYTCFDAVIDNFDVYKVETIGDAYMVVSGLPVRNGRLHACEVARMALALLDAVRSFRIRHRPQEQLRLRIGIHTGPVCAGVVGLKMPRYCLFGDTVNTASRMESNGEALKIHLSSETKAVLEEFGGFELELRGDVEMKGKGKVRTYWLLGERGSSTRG
T2 sequence (peptide): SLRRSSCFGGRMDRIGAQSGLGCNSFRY

[3] = molecular target: T3, human NPRA on HEK293 cells, without added ligand (human, UniProt P16066 33-1061); test: FACS, HEK NPRA cells without ligand
T3 construct: a signal peptide is not delimited; also called HEK NPRA cells; HEK hNPRA cells
T3 sequence: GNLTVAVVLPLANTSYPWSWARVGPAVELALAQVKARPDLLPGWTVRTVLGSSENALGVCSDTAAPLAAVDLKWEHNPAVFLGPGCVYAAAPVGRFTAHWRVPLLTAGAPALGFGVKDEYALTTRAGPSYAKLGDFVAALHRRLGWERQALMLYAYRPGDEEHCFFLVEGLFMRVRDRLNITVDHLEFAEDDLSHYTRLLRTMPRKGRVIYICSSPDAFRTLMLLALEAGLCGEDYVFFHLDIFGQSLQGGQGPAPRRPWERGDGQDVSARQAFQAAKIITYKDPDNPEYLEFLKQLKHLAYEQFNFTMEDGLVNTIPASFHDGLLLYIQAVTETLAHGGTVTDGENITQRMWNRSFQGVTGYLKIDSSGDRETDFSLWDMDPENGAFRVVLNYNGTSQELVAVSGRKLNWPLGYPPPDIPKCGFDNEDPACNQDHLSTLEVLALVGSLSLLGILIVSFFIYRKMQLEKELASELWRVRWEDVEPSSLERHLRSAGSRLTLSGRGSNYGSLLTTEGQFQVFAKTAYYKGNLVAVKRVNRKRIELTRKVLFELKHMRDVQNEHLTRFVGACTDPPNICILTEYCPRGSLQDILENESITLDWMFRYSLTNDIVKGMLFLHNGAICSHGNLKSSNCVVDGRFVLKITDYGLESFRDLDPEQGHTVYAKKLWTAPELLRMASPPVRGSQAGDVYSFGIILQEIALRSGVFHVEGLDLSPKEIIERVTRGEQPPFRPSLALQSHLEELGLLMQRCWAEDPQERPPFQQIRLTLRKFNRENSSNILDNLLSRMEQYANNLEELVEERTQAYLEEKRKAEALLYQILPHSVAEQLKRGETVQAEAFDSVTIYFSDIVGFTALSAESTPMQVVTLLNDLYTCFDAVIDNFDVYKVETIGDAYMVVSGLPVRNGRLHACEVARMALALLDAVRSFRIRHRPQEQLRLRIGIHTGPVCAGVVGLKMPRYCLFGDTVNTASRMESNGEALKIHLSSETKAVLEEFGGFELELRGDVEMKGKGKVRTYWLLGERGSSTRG

[4] = molecular target: T2, human NPRA on HEK293 cells bound to ANP; test: FACS, HEK NPRA cells with 100 nM ANP, IgG4_Pro format
[5] = molecular target: T2, human NPRA on HEK293 cells bound to ANP; test: cell-based or functional assay; remark: listed apart in the source
[6] = molecular target: T2, human NPRA on HEK293 cells bound to ANP; test: FACS, IgG4_Pro on HEK NPRA cells in the presence of 100 nM ANP
Method: as §1

[7] = molecular target: T4, human NPRC on HEK293 cells in the presence of ANP (human, UniProt P17342 27-541; P01160 124-151); test: FACS, HEK NPRC cells with 100 nM ANP
T4 construct: whole, on cells;mature; also called HEK NPRC cells + 100 nM ANP
T4 sequence (looked up): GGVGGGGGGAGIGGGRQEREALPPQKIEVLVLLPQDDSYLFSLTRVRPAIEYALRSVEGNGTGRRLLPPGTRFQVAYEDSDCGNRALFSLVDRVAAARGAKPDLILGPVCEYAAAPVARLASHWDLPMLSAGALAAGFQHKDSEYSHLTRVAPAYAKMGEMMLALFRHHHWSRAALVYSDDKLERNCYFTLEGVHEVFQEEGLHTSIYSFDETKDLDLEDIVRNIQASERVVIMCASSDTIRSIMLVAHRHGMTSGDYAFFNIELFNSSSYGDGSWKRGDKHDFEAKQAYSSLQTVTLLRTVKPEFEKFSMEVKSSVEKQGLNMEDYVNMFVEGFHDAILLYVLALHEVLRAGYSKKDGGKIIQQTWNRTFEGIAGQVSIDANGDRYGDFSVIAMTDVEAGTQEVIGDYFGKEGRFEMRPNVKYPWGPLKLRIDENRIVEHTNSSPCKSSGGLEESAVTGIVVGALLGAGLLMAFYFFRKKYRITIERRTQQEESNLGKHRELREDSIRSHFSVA
T4 sequence (peptide, looked up): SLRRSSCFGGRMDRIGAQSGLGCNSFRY
Method: as §1

[8] = molecular target: T5, human NPRC on HEK293 cells in the presence of BNP (human, UniProt P17342 27-541; P16860 103-134); test: FACS, HEK NPRC cells with 100 nM BNP
T5 construct: whole, on cells;mature; also called HEK NPRC cells + 100 nM BNP
T5 sequence (looked up): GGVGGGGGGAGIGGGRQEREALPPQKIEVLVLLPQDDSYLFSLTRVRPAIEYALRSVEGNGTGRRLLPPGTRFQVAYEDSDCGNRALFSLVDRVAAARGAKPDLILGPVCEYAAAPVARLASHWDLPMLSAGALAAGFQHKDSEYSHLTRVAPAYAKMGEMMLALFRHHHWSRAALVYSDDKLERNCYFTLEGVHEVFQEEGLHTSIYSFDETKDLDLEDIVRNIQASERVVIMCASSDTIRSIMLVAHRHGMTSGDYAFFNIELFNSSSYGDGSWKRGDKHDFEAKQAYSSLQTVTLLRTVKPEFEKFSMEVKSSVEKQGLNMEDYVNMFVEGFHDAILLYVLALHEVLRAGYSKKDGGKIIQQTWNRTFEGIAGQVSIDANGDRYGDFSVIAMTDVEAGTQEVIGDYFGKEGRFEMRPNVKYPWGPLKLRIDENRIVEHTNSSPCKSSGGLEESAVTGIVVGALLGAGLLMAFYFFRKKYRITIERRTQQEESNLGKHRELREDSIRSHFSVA
T5 sequence (peptide, looked up): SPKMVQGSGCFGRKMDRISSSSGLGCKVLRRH
Method: as §1

[9] = molecular target: T6, human NPRB on HEK293 cells in the presence of CNP (human, UniProt P20594 23-1047; P23582 105-126); test: FACS, HEK NPRB cells with 100 nM CNP
T6 construct: whole, on cells;mature; also called HEK NPRB cells + 100 nM CNP
Method: as §1

[10] = molecular target: T7, human NPRC on HEK293 cells, without added ligand (human, UniProt P17342 27-541); test: FACS, HEK NPRC cells without ligand
T7 construct: whole, on cells; also called HEK NPRC cells; natriuretic peptide receptor C
T7 sequence (looked up): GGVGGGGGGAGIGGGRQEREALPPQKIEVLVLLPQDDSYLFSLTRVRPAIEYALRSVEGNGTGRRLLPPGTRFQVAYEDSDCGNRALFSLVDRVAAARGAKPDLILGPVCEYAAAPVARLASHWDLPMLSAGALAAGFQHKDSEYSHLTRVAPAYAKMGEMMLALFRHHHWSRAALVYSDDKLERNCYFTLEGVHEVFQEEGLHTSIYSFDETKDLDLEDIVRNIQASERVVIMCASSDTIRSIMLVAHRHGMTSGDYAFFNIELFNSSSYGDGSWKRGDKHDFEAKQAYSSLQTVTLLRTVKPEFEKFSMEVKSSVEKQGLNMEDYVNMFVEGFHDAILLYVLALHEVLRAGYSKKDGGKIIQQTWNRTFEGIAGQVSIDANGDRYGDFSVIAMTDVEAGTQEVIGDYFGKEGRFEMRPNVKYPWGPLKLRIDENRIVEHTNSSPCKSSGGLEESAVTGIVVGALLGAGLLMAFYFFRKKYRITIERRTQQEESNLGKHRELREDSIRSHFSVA
Method: as §1

T6 sequence (P23582 105-126 limits assumed, one chain of several): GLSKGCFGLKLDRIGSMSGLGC

Binder	binding result [1]	cGMP EC50 (nM), titration of the antibody on HEK NPRA cells with 200 pM ANP [2]	binding result [3]	EC50 (read off the curve) [4]	fold increase in the potency of ANP (cGMP, HEK NPRA cells, 200 nM IgG4_Pro) [5]	EC50 [6]	binding result [7]	binding result [8]	binding result [9]	binding result [10]	EC50 of ANP, cGMP production in HEK NPRA cells, with 400 nM Fab [5]	factor by which the potency of ANP is enhanced (cGMP, 400 nM Fab) [5]
B1	no binding (tested: 20 nM)	1.2 nM	no binding (tested: 20 nM)	~0.5 nM	≤ 10 fold	0.56 nM	no binding (tested: 20 nM)	no binding (tested: 20 nM)	no binding (tested: 20 nM)	no binding (tested: 20 nM)		
B2											0.3 nM	10 fold

Reference: patent US20160168251A1 (MorphoSys, published 2016)
